Measured values as given in patent US20240182562A1 (ORICELL THERAPEUTICS, published 2024).

T1: Mouse CLDN18.2 (mouse, UniProt P56857 10-264)
T1 chain: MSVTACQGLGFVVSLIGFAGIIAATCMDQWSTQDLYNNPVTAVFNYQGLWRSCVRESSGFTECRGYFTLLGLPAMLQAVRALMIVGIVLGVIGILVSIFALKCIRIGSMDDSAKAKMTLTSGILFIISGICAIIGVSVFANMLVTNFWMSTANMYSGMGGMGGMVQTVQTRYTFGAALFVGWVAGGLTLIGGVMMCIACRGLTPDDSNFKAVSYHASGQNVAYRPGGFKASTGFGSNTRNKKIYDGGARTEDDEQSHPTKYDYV

T2: Cynomolgus monkey CLDN18.2 (cynomolgus monkey)
T2 chain: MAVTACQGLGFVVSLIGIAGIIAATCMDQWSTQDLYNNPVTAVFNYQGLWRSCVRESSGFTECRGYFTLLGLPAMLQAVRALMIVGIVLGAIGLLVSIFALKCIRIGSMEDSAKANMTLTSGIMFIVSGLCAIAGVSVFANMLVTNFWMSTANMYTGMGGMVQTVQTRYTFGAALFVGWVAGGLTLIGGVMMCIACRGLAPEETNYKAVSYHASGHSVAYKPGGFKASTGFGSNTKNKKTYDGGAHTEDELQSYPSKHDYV

B1: 7E3 (hybridoma clone, murine CLDN18.2 antigen-binding protein) (antibody, V domains shown)
VH: EVQLQQSGPELVKPGASVKMSCKASGYTFTNYIIHWVKQKPGQGLEWIGYINPYTDGPKYNEKFKGRATLTSDKSSSTAYMEFSSLTSEDSAVYYCARLNRGNAMDYWGQGTSVTVSS
VL: DIVMTQSPSSLTVTVREKVTLSCKSSQSLLNSGNQKNYLTWYQQKPGQPPKLLIYWASTRESGVPDRFTGSGSGTDFTLTISSVQAEDLAVYYCQNVYIYPFTFGAGTKLELKR
notes: Murine monoclonal antibody tested as hybridoma culture supernatant
B2: 5E6 (hybridoma clone, murine CLDN18.2 antigen-binding protein) (antibody, V domains shown)
VH: EVQLQQSGPELVKPGASVKMSCKASGYTFTNYVMNWVKQKPGQGLEWIGYINPYNDGTKYNERFKGKATLTSDKSSSTAFMEVSSLTSEDSAVYYCARLYRGNAMDYWGQGTSVTVSS
VL: DIVMTQSPSSLTVTVREKVTLSCKSSQSLLNSGNQKNYLTWYQQKPGQPPKLLIYWASTRESGVPDRFTGSGSGTDFTLTISSVQAEDLAVYYCQNVYIYPFTFGAGTKLELKR
notes: as for B1
B3: 17B10 (hybridoma clone, murine CLDN18.2 antigen-binding protein) (antibody, V domains shown)
VH: EVQLQESGPELVKPGASVKMSCKASGYTFTNYIIHWVKQKPGQGLEWIGYINPYTDGPKYNEKFKGRATLTSDKSSSTAYMEFSSLTSEDSAVYYCARLNRGNAMDYWGQGTSVTVSS
VL: DIVMTQSPSSLTVTAGEKVTMNCKSSQSLLNSGNQKNYLTWYQQKPGQPPKLLIYWASTRESGVPDRFTGSGSGTDFTLTISSVQAEDLAVYYCQNDYSFPFTFGSGTKLEIKR
notes: as for B1
B4: 14E12 (hybridoma clone, murine CLDN18.2 antigen-binding protein) (antibody, V domains shown)
VH: EVQLQESGPELVKPGASVKMSCKASGYTFTNYIIHWVKQKPGQGLEWIGYINPYTDGPKYNEKFKGRATLTSDKSSSTAYMEFSSLTSEDSAVYYCARLNRGNAMDYWGQGTSVTVSS
VL: DIVMTQSPSSLSVSAGEKVTMSCKSSQSLLNNGNQKNYLAWYQQKPGQPPKLLIYGASTRESGVPDRFTGSGSGTDFALTISSVQAEDLAVYYCQNDLYYPFTFGSGTKLDIKR
notes: as for B1
B5: c7E3 (antibody, V domains shown)
VH: EVQLQQSGPELVKPGASVKMSCKASGYTFTNYIIHWVKQKPGQGLEWIGYINPYTDGPKYNEKFKGRATLTSDKSSSTAYMEFSSLTSEDSAVYYCARLNRGNAMDYWGQGTSVTVSS
VL: DIVMTQSPSSLTVTVREKVTLSCKSSQSLLNSGNQKNYLTWYQQKPGQPPKLLIYWASTRESGVPDRFTGSGSGTDFTLTISSVQAEDLAVYYCQNVYIYPFTFGAGTKLELKR
B6: c5E6 (antibody, V domains shown)
VH: EVQLQQSGPELVKPGASVKMSCKASGYTFTNYVMNWVKQKPGQGLEWIGYINPYNDGTKYNERFKGKATLTSDKSSSTAFMEVSSLTSEDSAVYYCARLYRGNAMDYWGQGTSVTVSS
VL: DIVMTQSPSSLTVTVREKVTLSCKSSQSLLNSGNQKNYLTWYQQKPGQPPKLLIYWASTRESGVPDRFTGSGSGTDFTLTISSVQAEDLAVYYCQNVYIYPFTFGAGTKLELKR
B7: c17B10 (antibody, V domains shown)
VH: EVQLQESGPELVKPGASVKMSCKASGYTFTNYIIHWVKQKPGQGLEWIGYINPYTDGPKYNEKFKGRATLTSDKSSSTAYMEFSSLTSEDSAVYYCARLNRGNAMDYWGQGTSVTVSS
VL: DIVMTQSPSSLTVTAGEKVTMNCKSSQSLLNSGNQKNYLTWYQQKPGQPPKLLIYWASTRESGVPDRFTGSGSGTDFTLTISSVQAEDLAVYYCQNDYSFPFTFGSGTKLEIKR
B8: c3A6 (antibody, V domains shown)
VH: EVQLVESGGDLVQPGGSLKLSCAASGFTLSRYGMSWVRQTPDKRLEWVSTIISGGINTYYSDSVKGRFSISRDNARNTLYLQMSSLKSEDTAMYYCGRLYYGNAMDYWGQGTAVTVSS
VL: DIVMTQSPSSLTVTAGEKVTMSCKSSQSLLNSGNQKNYLTWYQQKPGQPPKLLIYWASTRESGVPDRFTGSGSGTHFTLTISSVQAEDLAVYYCQNDYSYPLTFGAGTKLELKR
B9: c14E12 (antibody, V domains shown)
VH: EVQLQESGPELVKPGASVKMSCKASGYTFTNYIIHWVKQKPGQGLEWIGYINPYTDGPKYNEKFKGRATLTSDKSSSTAYMEFSSLTSEDSAVYYCARLNRGNAMDYWGQGTSVTVSS
VL: DIVMTQSPSSLSVSAGEKVTMSCKSSQSLLNNGNQKNYLAWYQQKPGQPPKLLIYGASTRESGVPDRFTGSGSGTDFALTISSVQAEDLAVYYCQNDLYYPFTFGSGTKLDIKR
B10: 3A6 (hybridoma clone, murine CLDN18.2 antigen-binding protein) (antibody, V domains shown)
VH: EVQLVESGGDLVQPGGSLKLSCAASGFTLSRYGMSWVRQTPDKRLEWVSTIISGGINTYYSDSVKGRFSISRDNARNTLYLQMSSLKSEDTAMYYCGRLYYGNAMDYWGQGTAVTVSS
VL: DIVMTQSPSSLTVTAGEKVTMSCKSSQSLLNSGNQKNYLTWYQQKPGQPPKLLIYWASTRESGVPDRFTGSGSGTHFTLTISSVQAEDLAVYYCQNDYSYPLTFGAGTKLELKR
notes: as for B1
B11: Standard antibody (antibody, V domains shown)
VH: QVQLQESGPGLIKPSQTLSLTCTVSGGSISSGYNWHWIRQPPGKGLEWIGYIHYTGSTNYNPALRSRVTISVDTSKNQFSLKLSSVTAADTAIYYCARIYNGNSFPYWGQGTTVTVSS
VL: DIVMTQSPDSLAVSLGERATINCKSSQSLFNSGNQKNYLTWYQQKPGQPPKLLIYWASTRESGVPDRFSGSGSGTDFTLTISSLQAEDVAVYYCQNAYSFPYTFGGGTKLEIKR
notes: detected with anti-human IgG-Fc

Assays:
[1] = target: T3, Human CLDN18.2 (human, UniProt P56856-2 1-261); experiment: FACS, hybridoma culture supernatant on 293T-human CLDN18.2 cells
T3 construct: whole, on cells; also called human Claudin18.2; hCLDN18.2
Description: (§1) The cells were co-incubated at 4° C. for 1 hour and the plates were washed once with the flow cytometry buffer. A corresponding secondary antibody was added at 30 ul/well and co-incubated at 4° C. for 30 minutes and the plates were then washed with the flow cytometry buffer twice. After the cells were shaken loose, the FACS buffer was added at 25 μl/well, and FACS was then performed on the iQue Screener flow cytometer (purchased from IntelliCyt Company). The mother clones that were positive for CLDN18.2 in the primary sorting were picked for expansion culture in 24-well cell culture plates. Three days later, the cell supernatant was taken for re-sorting by FACS. […] The positive hybridoma mother clones were monocloned using a gradient dilution method. After two to three rounds of subcloning and FACS, a monoclonal hybridoma cell secreting a CLDN18.2-specific antibody was obtained.

[2] = target: T3, Human CLDN18.2; experiment: FACS, hybridoma culture supernatant on CHO-human CLDN18.2 cells
Description: as §1

[3] = target: T1, Mouse CLDN18.2; experiment: FACS on 293T-mouse CLDN18.2 cells (FIG. 4)
Description: (§2) The species cross-binding activity of the above antigen-binding proteins to mouse CLDN18.2 and cynomolgus monkey CLDN18.2 were tested through FACS on the CytoFLEX flow cytometer (purchased from BECKMAN COULTER Company) using PBS containing 0.1% BSA as a buffer. […] The treated cells were then resuspended in a flow cytometry buffer to the cell density of 1×10⁶ cells/ml, and then added into V-bottom 96-well plates at 30 μl/well. Primary antibodies with initial concentration of 10 ug/ml were gradient diluted with the flow cytometry buffer at a three-fold ratio to form 6 gradients. […] After inoculation at 4° C. for one hour, the plates were washed once with the flow cytometry buffer. The secondary antibody (abcam, Cat #ab98593) was added at 30 μl/well. After incubation at 4° C. for 30 minutes, the plates were washed twice with the flow cytometry buffer and the cells were shaken dispersedly. The flow cytometry buffer was added at 30 μl/well, and then the cells were tested on the flow cytometer. Original data were entered into the software GraphPad8.0 for graphing and calculation.

[4] = target: T2, Cynomolgus monkey CLDN18.2; experiment: FACS on 293T-cynomolgus monkey CLDN18.2 cells (FIG. 4)
Description: as §2

[5] = target: T3, Human CLDN18.2; experiment: FACS on SP2/0-hCLDN18.2 cells (FIG. 12)
Description: After counting, the SP2/0-hCLDN18.2 cell was resuspended in a flow cytometry buffer, adjusted to the density of 1×10⁶ cells/ml, and then added into V-bottom 96-well plates at 30 μl/well. Primary antibodies with initial working concentration of 80 μg/ml were added at 30 μl/well, and then gradient diluted with the flow cytometry buffer at a four-fold ratio to form 7 gradients. A PBS negative control was set up for each antibody. After inoculation at 4° C. for one hour, the plates were washed once with the flow cytometry buffer. The secondary antibody, i.e., goat F(ab′)2 anti-human IgG-Fc (DyLight® 650) (abcam, Cat #ab98593), was added at 30 μl/well. After inoculation at 4° C. for 30 minutes, the plates were washed twice with the flow cytometry buffer and the cells were shaken dispersedly. The flow cytometry buffer was added at 25 μl/well, and then the cells were ready for FACS on the flow cytometer. In the meanwhile, after counting, the SP2/0-hCLDN18.1 cell was loaded in plates. Primary antibodies with initial working concentration of 10 μg/ml were gradient diluted at a three-fold ratio to form 5 concentration gradients in total. The secondary antibody used was goat F(ab′)2 anti-human IgG-Fc (DyLight® 650) (abcam, Cat #ab98593). Original data were entered into the software GraphPad8.0 for graphing and calculation.

Average fluorescence intensity [1]	Average fluorescence intensity [2]	binding result [3]	binding result [4]	binding result [5]	Binder
48200	84800				B1
108000	293000				B2
30600	52100				B3
16600	27600				B4
		binds	binds		B5
		binds	binds		B6
		binds	binds		B7
		binds	binds		B8
		binds	binds		B9
101000	215000				B10
				binds	B11
